Data published in PMC4674680, “An in cellulo-derived structure of PAK4 in complex with its inhibitor Inka1” (Nature Communications, 2015).
One block for each binder: values may come before it.

Assays:
[1] = target: T1, 6His–PAK4cat (PAK4 286–591) (human, UniProt O96013 286-591); assay: crystal structure; in-vitro crystals, hanging drop, 6His–PAK4cat 5 mg/ml with 15-fold molar excess of peptide and two times molar excess of ATP, 0.1 M Tris–HCl pH 8.5, 12% PEG 8000, 25 °C, space group P4_(1)2_(1)2; settings: both partners purified
T1 construct: human PAK4 catalytic domain, residues 286–591, in pSY5 (His tagged); Residues 297–589 are seen in PDB 4XBU; also called purified PAK4; source: E. coli BL21-CodonPlus(DE3), purified (Ni-NTA; semi-automated Akta system for crystallization)

[2] = target: T1, 6His–PAK4cat (PAK4 286–591); assay: kinase inhibition assay; 50 nM purified PAK4cat, 10 μM GST-Raf1S338 peptide, 10 μM ATP (γ32P), 25 mM HEPES pH 7.3, 50 mM KCl, 10 mM MgCl2, 30 °C, 20 min; inhibitor pre-incubated with the kinase on ice 10 min; values from the intercepts of the inhibition graphs; settings: both partners purified

T1 sequence (O96013 286-591): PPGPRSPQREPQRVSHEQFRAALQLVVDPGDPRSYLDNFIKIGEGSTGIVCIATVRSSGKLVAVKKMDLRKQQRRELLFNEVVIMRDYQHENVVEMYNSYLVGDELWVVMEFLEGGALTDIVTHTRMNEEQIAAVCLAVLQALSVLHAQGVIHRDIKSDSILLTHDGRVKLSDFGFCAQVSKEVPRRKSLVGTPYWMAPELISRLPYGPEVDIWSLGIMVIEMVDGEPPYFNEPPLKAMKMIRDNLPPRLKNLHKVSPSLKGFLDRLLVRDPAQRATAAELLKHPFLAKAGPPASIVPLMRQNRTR

binding result [1]: binds
B1: iBox 23mer synthetic peptide (peptide)
peptide: AEDWTAALLNRGRSRQPLVLGDW
notes: synthetic peptide of the amino-terminal part of the human Inka1 iBox (iBox is 166–203); residues 178–189 are seen in the structure; also called iBox24; synthetic iBox 24mer peptide; source: synthetic peptide

Ki [2]: 30 nM
B2: GST-iBox (Inka1 166–203) (domain or fragment)
chain: EAEDWTAALLNRGRSRQPLVLGDNCFADLVHNWMELPE
modifications: GST carrier left out. Limits 166-203 are the paper's, taken from the 4XBR fusion: Flag/SGS 1-12, iBox 13-50, EF linker 51-52, PAK4 278-591 from 53 (12+38+2+314=366). Entity position = paper number …
